Each block holds one binder with its values, some of them ahead of it. Starred links: 1 amine or outer side, 2 acyl side, 3 side chain; linkers in the order of their positions; H or OH if unused. Positions of bridges follow the written chain, without caps; N, C: chain ends. Non-standard residues stand in square brackets, D forms with d. Primed or numbered codes have the meaning given here. *: point of attachment. Aph(SaPr)(3) = 4-amino-L-phenylalanine with ring amino acylated by 3-sulfamoylpropanoic acid, NS(=O)(=O)CCC(=O)Nc1ccc(C[C@H](N[*:1])C(=O)[*:2])cc1; Aph(SaPr)″ = 4-amino-L-phenylalanine, ring amine acylated with 3-sulfamoylpropanoic acid, NS(=O)(=O)CCC(=O)Nc1ccc(C[C@H](N[*:1])C(=O)[*:2])cc1; 111In‑DOTA = O=C([O-])CN1CCN(CC(=O)[O-])CCN(CC(=O)*)CCN(CC(=O)[O-])CC1.[111In+3]; Phe(3-NHCO(CH2)3SO2NH2) = N[C@@H](Cc1cccc(NC(=O)CCCS(N)(=O)=O)c1)C(=O)O; APAc″ = 2-(4-(amino)piperidin-1-yl)acetic acid, NC1CCN(CC(=O)*)CC1; DOTA = O=C(O)CN1CCN(CC(=O)O)CCN(CC(=O)*)CCN(CC(=O)O)CC1; PPAc = 4-carboxymethyl piperazine linker; mXylylene = c1cc(C[*:1])cc(C[*:2])c1; APAc = not defined here; Dap = NC[C@H](N)C(=O)O
Tests used:
[1] = molecular target: T1, canine carbonic anhydrase 9 (CAIX) (dog); test: radioligand saturation binding on CHO cells with dog CAIX, 8 h at 37 C
T1 construct: also called dog CAIX; dgCAIX
T1 sequence (chain, as listed by the source limits assumed): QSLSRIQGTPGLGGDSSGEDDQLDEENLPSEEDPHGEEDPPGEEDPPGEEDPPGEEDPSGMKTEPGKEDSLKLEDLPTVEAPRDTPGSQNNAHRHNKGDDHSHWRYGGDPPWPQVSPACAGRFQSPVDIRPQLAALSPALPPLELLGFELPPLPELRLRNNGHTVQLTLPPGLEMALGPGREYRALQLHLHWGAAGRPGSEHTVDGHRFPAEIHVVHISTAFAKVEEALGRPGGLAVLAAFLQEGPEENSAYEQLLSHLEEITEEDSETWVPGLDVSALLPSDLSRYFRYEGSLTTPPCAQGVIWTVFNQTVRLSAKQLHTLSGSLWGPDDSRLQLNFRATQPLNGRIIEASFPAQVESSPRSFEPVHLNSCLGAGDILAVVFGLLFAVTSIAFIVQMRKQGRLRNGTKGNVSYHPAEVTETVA
Method: (§2) The radioligand saturation binding on CHO-huCAIX and dgCAIX was determined as follows. […] To determine total binding, 700 μL of binding medium and 100 μL of the radioligand dilutions were added to the wells in triplicates. […] The plates were incubated for 8 h at 37° C. under standard cell culture conditions (5% CO2). At the end of the incubation time the plates were placed on ice while aspirating the radioligand solutions. Aliquots of the 20 nM supernatants were transferred to HPLC vials for analysis of radioligand stability over the incubation time. Subsequently, the cells were washed with ice-cold PBS (0.5 mL, 1 mL, 1 mL). 300 μL of RIPA buffer containing PIC was added to each well and the plates were placed on a shaker for 10 min at ambient temperature. 200 μL of the cell lysate of each well was transferred to gamma-counting tubes. Their associated radioactivity was counted using a gamma counter and normalized to the measured protein concentration of each well (see chapter 6.3.7 BCA protein assay). An aliquot of each radioligand dilution was included in the gamma counter measurements to allow for determination of the actual radioligand concentrations in the dilution series.

[2] = molecular target: T2, human carbonic anhydrase IX (CAIX) (human, UniProt Q16790 38-459); test: radioligand binding, 111In-labeled compound, CHO cells with human CAIX; pKD category A: >8.0
Method: (§3) CHO-VGT cells were transfected with the human, dog, and mouse CAIX (InSCREENex GmbH) and cultured in Ham's F-12 medium (Sigma-Aldrich #N4888) supplemented with 10% fetal bovine serum (FCS), 2 mM L-glutamine, 100 U/mL Penicillin, and 0.1 mg/mL streptomycin. […] Cell concentrations were adjusted to 3×10⁵ mL⁻¹, and 1.000 μL of the suspension per well were dispensed into flat-clear-bottom 24 well plates.
(§4) Approximately 24 hours after re-seeding, the medium was aspirated and the cells were washed once with 1000 μL assay medium (Ham's medium without additives). To determine total binding, 700 μL of assay medium and 100 μL of the radioligand dilutions were added to the wells in triplicates. To determine non-specific binding, 600 μL of binding medium, 100 μL of the radioligand dilutions and 100 μL of a blocking solution containing 8 μM non-labeled compound were added to the wells in triplicates. […] An aliquot of each radioligand dilution was included in the gamma counter measurements to allow for determination of their actual concentrations via their known specific activity.

[3] = molecular target: T3, murine carbonic anhydrase 9 (CAIX) (mouse, UniProt Q8VHB5 32-437); test: radioligand binding, 111In-labeled compound, CHO cells with mouse CAIX; pKD category C: 6.1-7.0
T3 construct: On transfected CHO-VGT cells; also called mouse CAIX
T3 sequence (Q8VHB5 32-437 limits assumed): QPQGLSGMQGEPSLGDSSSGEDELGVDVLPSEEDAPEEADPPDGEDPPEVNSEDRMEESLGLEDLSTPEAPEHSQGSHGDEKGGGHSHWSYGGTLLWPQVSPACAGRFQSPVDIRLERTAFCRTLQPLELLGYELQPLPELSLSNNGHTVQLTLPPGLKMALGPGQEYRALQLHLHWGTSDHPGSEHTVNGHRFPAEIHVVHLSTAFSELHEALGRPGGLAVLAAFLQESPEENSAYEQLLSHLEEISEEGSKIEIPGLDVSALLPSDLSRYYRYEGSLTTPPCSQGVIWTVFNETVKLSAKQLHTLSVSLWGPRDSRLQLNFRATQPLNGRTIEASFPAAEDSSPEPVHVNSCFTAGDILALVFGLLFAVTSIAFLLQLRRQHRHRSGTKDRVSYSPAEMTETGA

[4] = molecular target: T4, canine carbonic anhydrase 9 (CAIX) (dog); test: radioligand binding, 111In-labeled compound, CHO cells with dog CAIX; pKD category A: >8.0
T4 construct: On transfected CHO-VGT cells; also called dog CAIX
T4 sequence (chain, as listed by the source limits assumed): as the sequence (chain, as listed by the source limits assumed) above
Method: as §3, §4

[5] = molecular target: T5, human carbonic anhydrase XIV (CAXIV), biotinylated (human, UniProt Q9ULX7 16-290, biotinylated); test: SPR, biotinylated CAXIV captured (Biotin CAPture)
T5 construct: Bought (SinoBiological Cat #10458-H08H); also called hCAXIV-bio
T5 sequence (Q9ULX7 16-290 limits assumed): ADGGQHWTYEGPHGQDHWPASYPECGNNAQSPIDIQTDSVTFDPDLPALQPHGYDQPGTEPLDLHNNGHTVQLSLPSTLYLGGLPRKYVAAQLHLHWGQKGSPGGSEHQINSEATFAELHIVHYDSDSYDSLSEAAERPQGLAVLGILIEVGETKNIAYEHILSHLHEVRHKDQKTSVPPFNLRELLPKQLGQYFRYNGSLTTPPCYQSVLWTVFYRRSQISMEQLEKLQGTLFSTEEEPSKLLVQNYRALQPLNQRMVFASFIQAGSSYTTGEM
Description: (§1) For each test compound, SPR raw data in the form of resonance units (RU) were plotted as sensorgrams using the Biacore™ T200 control software. The signal from the blank sensorgram was subtracted from that of the test compound sensorgram (blank corrected). The blank corrected sensorgram was corrected for baseline drift by subtracting the sensorgram of a SCK run without the test compound (running buffer only). […] Raw data and fit results were imported as text files in IDBS. The pKD value (negative decadic logarithm of dissociation constant) was calculated in the IDBS excel template.

[6] = molecular target: T2, human carbonic anhydrase IX (CAIX); test: FACS competition, HT-29 cells, tracer 3BP-2776; pIC50 category A: >8.0
Method: CAIX-expressing human HT-29 colorectal cancer cells (DSMZ, RRID: CVCL_0320) were cultured in McCoys's 5A modified medium (Biochrom, #F1015) including 10% fetal calf serum (FCS), 2 mM L-glutamine, 100 U/ml penicillin and 100 μg/mL streptomycin. Cells were detached with Accutase (Biolegend, #423201) and washed in FACS buffer (PBS including 1% FCS). Cells were diluted in FACS buffer to a final concentration of 500.000 cells per ml. 200 μL of the cell suspension were transferred to a u-shaped non-binding 96-well plate (Greiner) and cells were washed in ice-cold FACS buffer.
When biotinylated compounds were used an additional incubation step with 1 μg/mL APC-Streptavidin (Miltenyi; #130-106-791) in 50 μL FACS buffer for 30 minutes on ice was performed.
Cells were washed twice with ice-cold FACS buffer and analyzed in an Attune NxT flow cytometer (Thermo Fisher). Median fluorescence intensities (MFI) of the APC/Cy5-channel were calculated by Attune NxT software.

[7] = molecular target: T6, human carbonic anhydrase IV (CAIV), biotinylated (human, UniProt P22748 19-283, limits assumed, biotinylated); test: SPR, biotinylated CAIV captured (Biotin CAPture)
T6 construct: Bought (SinoBiological, Cat # printed 10472-1H081H); also called hCAIV-bio
T6 sequence (P22748 19-283 limits assumed): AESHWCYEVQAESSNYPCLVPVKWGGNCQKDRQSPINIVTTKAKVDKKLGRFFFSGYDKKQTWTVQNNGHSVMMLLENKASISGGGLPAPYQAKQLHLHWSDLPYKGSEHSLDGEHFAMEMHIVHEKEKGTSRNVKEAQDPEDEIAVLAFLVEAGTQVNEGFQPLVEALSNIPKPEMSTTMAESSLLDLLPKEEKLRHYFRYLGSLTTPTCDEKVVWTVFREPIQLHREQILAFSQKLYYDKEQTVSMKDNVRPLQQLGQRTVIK
Description: as §1

[8] = molecular target: T7, Fc-fusion protein of human carbonic anhydrase IX (human, UniProt Q16790 38-414); test: SPR, captured hCAIX-Fc; pKD category A: >8.0
[9] = molecular target: T8, human carbonic anhydrase XII (CAXII), biotinylated (human, UniProt O43570 25-301, biotinylated); test: SPR, biotinylated CAXII captured (Biotin CAPture)
T8 construct: Bought (SinoBiological Cat #10617-H08H); also called hCAXII-bio
T8 sequence (O43570 25-301 limits assumed): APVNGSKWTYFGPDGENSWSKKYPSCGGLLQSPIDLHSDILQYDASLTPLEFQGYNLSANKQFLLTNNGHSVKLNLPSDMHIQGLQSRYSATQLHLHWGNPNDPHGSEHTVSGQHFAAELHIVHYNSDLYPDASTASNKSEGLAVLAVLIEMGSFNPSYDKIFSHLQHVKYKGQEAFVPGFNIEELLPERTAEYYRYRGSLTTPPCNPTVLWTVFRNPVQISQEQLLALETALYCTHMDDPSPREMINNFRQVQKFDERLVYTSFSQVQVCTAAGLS
Description: as §1

[10] = molecular target: T7, Fc-fusion protein of human carbonic …; test: SPR, CAIX; pKD category A: >8.0
Method: Stock solutions of test compounds were prepared by dissolving each compound in DMSO. DMSO stock solution were diluted 1:1000 in Running Buffer without DMSO. […] SPR binding analyses were performed in Single Cycle Kinetic (SCK) mode at 25° C.
as §1

[11] = molecular target: T7, Fc-fusion protein of human carbonic …; test: SPR, captured hCAIX-Fc; t1/2 category A: >15.0 min
[12] = molecular target: T9, canine carbonic anhydrase 9 (CAIX) (dog); test: radioligand saturation binding on CHO-dgCAIX cells, 8 h at 37 °C, experiment iii
T9 construct: Expressed on transfected CHO cells (CHO-dogCA9); also called dgCAIX; dog CAIX
T9 sequence (chain, as listed by the source limits assumed): as the sequence (chain, as listed by the source limits assumed) above
Method: as §2

[13] = molecular target: Human carbonic anhydrase IX Fc-fusion protein (CAIX, Sino Biological, 10107-H02H) (human, UniProt Q16790 38-414); test: SPR (Biacore T200), CAIX-Fc captured by anti-human Fc antibody, peptide as analyte, single cycle kinetics, 25 C, 1:1 Langmuir fit
Method: Surface Plasmon Resonance (SPR) studies were performed on a Biacore™ T200 using a ligand capture approach. Basically, anti-human Fc antibodies were immobilized on the surface of a sensor chip and CAIX was captured on the functionalized surface via its Fc Tag.

[14] = molecular target: T3, murine carbonic anhydrase 9 (CAIX); test: radioligand binding, 111In-labeled compound, CHO cells with mouse CAIX; pKD category B: 7.1-8.0

B1: [111In]In-DPI-4452: 111In-DOTA-PPAc-Q-[C(3MeBn)-EPD-Af3(Cpsu)-LTWSC]-NH2 (peptide)
peptide: {DOTA-PPAc}-QCE[dP]D[Phe(3-NHCO(CH2)3SO2NH2)]LTWSC-NH2
modifications: linker 2-11 via mXylylene; also: 111In complexed in DOTA
notes: also called 111In-3BP-4452; In-111-labeled DPI-4452
pKd [1]: ≥ 9

Binder: {DOTA-APAc}-VYCE[dP]DWLTWSC-NH2 (linker 3-12 via mXylylene; reading uncertain) [3BP-3583]
pKD [5]: < 6 pkd
pKD [7]: < 6 pkd
pKD [8]: > 8 pkd
pKD [9]: < 6 pkd
pKD [10]: > 8 pkd
t1/2 (half-life of the complex, SPR) [11]: > 15 min

Binder: {111In‑DOTA-PPAc}-QCE[dP]D[Phe(3-NHCO(CH2)3SO2NH2)]LTWSC-NH2 (linker 2-11 via mXylylene, also called [111In]In-DPI-4452) [111In-3BP-4452]
pKD [14]: 7.1 to 8 pkd
pKD [4]: > 8 pkd

B4: [111In]In-DPI-4501: 111In-DOTA-Q-[C(3MeBn)-EPD-Aph(SaPr)-LTWSC]-NH2 (peptide)
peptide: {DOTA}-QCE[dP]D[Aph(SaPr)″]LTWSC-NH2
modifications: linker 2-11 via mXylylene; also: 111In complexed in DOTA
notes: also called 111In-3BP-4501; In-111-labeled DPI-4501
pKd [1]: ≥ 9

The next lines start with the values.

pKD [2]: > 8 pkd
pKD [3]: 6.1 to 7 pkd
pKD [4]: > 8 pkd
Binder: {111In‑DOTA-APAc″}-VYCE[dP]DWLTWSC-NH2 (linker 3-12 via mXylylene, also called 3BP-3583 (111In-labeled)) [111In-3BP-3583]

pKD [5]: < 6 pkd
pIC50 [6]: > 8 pic50
pKD [7]: < 6 pkd
pKD [8]: > 8 pkd
pKD [9]: < 6 pkd
pKD [10]: > 8 pkd
t1/2 (half-life of the complex, SPR) [11]: > 15 min
Binder: {DOTA}-ECE[dP]D[Phe(3-NHCO(CH2)3SO2NH2)]LTW[Dap]C-NH2 (lactam 1-10; linker 2-11 via mXylylene, also called DPI-4503) [3BP-4503]

pKd [12]: 9.6 -log10(M)
B2: [^111In]In-DPI-4501 (peptide)
peptide: {DOTA}-QCE[dP]D[Aph(SaPr)(3)]LTWSC-NH2
modifications: linker 2-11 via mXylylene; also: 111In complexed by DOTA
notes: Cyclic peptide with chelator DOTA complexing In-111; X stands for the non-natural residue Aph(SaPr); also called ^111In-DOTA-Q-[C(3MeBn)-EPD-Aph(SaPr)-LTWSC]-NH2; ^111In-3BP-4501

t1/2 (dissociation half-life) [13]: 99 min
B3: DOTA-PPAc-Gln-[Cys(3MeBn)-Glu-pro-Asp-Af3(Cpsu)-Leu-Thr-Trp-Ser-Cys]-NH2 (peptide)
peptide: {DOTA-PPAc}-QCE[dP]D[Phe(3-NHCO(CH2)3SO2NH2)]LTWSC-NH2
modifications: linker 2-11 via mXylylene
notes: Synthetic cyclic peptide with uncomplexed DOTA; X stands for the non-natural residue Af3(Cpsu); also called DPI-4452; 3BP-4452

Reference: patent publication US20250339569A1 (3B PHARMACEUTICALS, published 2025)
